Reference: patent US6989144

Target: GPVI on baboon platelets (baboon)
Assay: flow cytometry, washed baboon platelets; positive control

B1: convulxin (Cvx) purified from the venom of Crotalus durissus terrificus (ligand)
chain 1: GLHCPSDWYYYDQHCYRIFNEEMNWEDAEWFCTKQAKGAHLVSIKSAKEADFVAWMVTQNIEESFSHVSIGLRVQNKEKQCSTKWSDGSSVSYDNLLDLYITKCSLLKKETGFRKWFVASCIGKIPFVCKFPPQC
chain 2: GFCCPSHWSSYDRYCYKVFKQEMTWADAEKFCTQQHTGSHLVSFHSTEEVDFVVKMTHQSLKSTFFWIGANNIWNKCNWQWSDGTKPEYKEWHEEFECLISRTFDNQWLSAPCSDTYSFVCKFEA
- Baboon fluorescence intensity: 72
- Baboon platelets % positive: 95%
